Measured values: PMC6748948 (2019)

Assays:
[1] = biological target: Peptide P3 (BMP9 peptide mimetic designed from the type I receptor binding site) (UniProt Q9UK05 320-429); assay: SPR
[2] = biological target: Peptide P3r (randomly shuffled amino acid sequence of peptide P3); assay: SPR

Kd [1] [mM] | Kd [2] [mM] | Binder
6.7 | 9.42 | ALK2-Fc (activin receptor like kinase 2, Fc fusion) (Fc fusion) MEDEKPKVNPKLYMCVCEGLSCGNEDHCEGQQCFSSLSINDGFHVYQKGCFQVYEQGKMTCKTPPSPGQAVECCQGDWCNRNITAQLPTKGKSFPGTQNFHLE
5.8 | 4.3 | ALK3-Fc (activin receptor like kinase 3, Fc fusion) (Fc fusion) QNLDSMLHGTGMKSDSDQKKSENGVTLAPEDTLPFLKCYCSGHCPDDAINNTCITNGHCFAIIEEDDQGETTLASGCMKYEGSDFQCKDSPKAQLRRTIECCRTNLCNQYLQPTLPPVVIGPFFDGSIR
